According to the supplement of paper PMC7125110:
± gives the standard error. This sample holds only a part of the variants without activity.

B1: glmS ribozyme (parent)
chain: AUAAAAGCGCCAGAACUACAGAAAUGUAGUUGACGAGGAGGAGGUUUAUCGAAUUUUCGGCGGAUGCCUCCAAA

How the values were obtained:
Settings in all cases: with glucosamine-6-phosphate
glucosamine-6-phosphate [1] = variants of: B1; experiment: self-cleavage kobs at 40 uM GlcN6P; higher = faster cleavage; RNA array
Procedure, shortened: (§1)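 Using a hybridised Cy3 probe at 37 °C, barcoded ribozyme variants transcribed in situ by E. coli RNA polymerase on sequenced MiSeq chips were monitored across tiles imaged over ~14 h. The flow contained glucosamine-6-phosphate from 40 μM to 10 mM in HEPES/KCl/Mg(OAc)2 buffer. Signals were normalised to baseline and to non-cleaving reference variants before per-tile medians were fit to one- or two-exponential decays to yield kobs. Weighted Michaelis–Menten fits across concentrations gave kcat and KM.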

glucosamine-6-phosphate [2] = variants of: B1; experiment: self-cleavage kobs at 160 uM GlcN6P; higher = faster cleavage; RNA array
Procedure, shortened: as §1

glucosamine-6-phosphate [3] = variants of: B1; experiment: self-cleavage kobs at 2500 uM GlcN6P; higher = faster cleavage; RNA array
Procedure, shortened: as §1

glucosamine-6-phosphate [4] = variants of: B1; experiment: self-cleavage kobs at 10000 uM GlcN6P; higher = faster cleavage; RNA array
Procedure, shortened: as §1

glucosamine-6-phosphate [5] = variants of: B1; experiment: self-cleavage kobs at 640 uM GlcN6P; higher = faster cleavage; RNA array
Procedure, shortened: as §1

Row | Variant | self-cleavage kobs at 40 uM GlcN6P (glucosamine-6-phosphate [1]) [s⁻¹] | self-cleavage kobs at 160 uM GlcN6P (glucosamine-6-phosphate [2]) [s⁻¹] | self-cleavage kobs at 2500 uM GlcN6P (glucosamine-6-phosphate [3]) [s⁻¹] | self-cleavage kobs at 10000 uM GlcN6P (glucosamine-6-phosphate [4]) [s⁻¹] | self-cleavage kobs at 640 uM GlcN6P (glucosamine-6-phosphate [5]) [s⁻¹]
1 | G51C A52G | < 1e-05 | < 1e-05 | < 1e-05 | < 1e-05 | –
2 | G40A U54A | 0.000696 ± 0.00017 | – | 0.00212 ± 0.00077 | – | 0.000502 ± 0.00015
3 | G7C U46G C67G | < 1e-05 | – | – | < 1e-05 | –
4 | U31G G35U | < 1e-05 | < 1e-05 | < 1e-05 | < 1e-05 | < 1e-05
5 | A6G G13U | < 1e-05 | < 1e-05 | – | – | < 1e-05
6 | A6U G9U | < 1e-05 | < 1e-05 | < 1e-05 | – | < 1e-05
7 | A14U U55G C58U G66U C67G | 0.00272 ± 0.001 | – | – | – | –
8 | C16A G37U G38A U45A U55G | < 1e-05 | – | – | < 1e-05 | –
9 | U55G C68U | 0.000294 ± 3.6e-05 | 0.00035 ± 8.1e-05 | 0.000382 ± 8.7e-05 | 0.00508 ± 0.00094 | 0.00158 ± 0.00035
10 | U55G C71G | 7.4e-05 ± 1.7e-05 | – | 0.000704 ± 0.00019 | 0.00121 ± 0.00035 | –
11 | G7C A33U A48U | < 1e-05 | – | – | – | –
12 | C10A U47A | < 1e-05 | < 1e-05 | – | – | < 1e-05
13 | A33U G43A | < 1e-05 | < 1e-05 | < 1e-05 | < 1e-05 | < 1e-05
14 | A39U G59C | < 1e-05 | < 1e-05 | < 1e-05 | < 1e-05 | < 1e-05
15 | G35A G41A A48G C61U | < 1e-05 | – | – | – | –
16 | U30A U57G U65G | < 1e-05 | – | – | – | –
17 | C8A U57A G63A | < 1e-05 | – | < 1e-05 | – | –
18 | A14G U31A A36U A64G | < 1e-05 | – | – | – | –
19 | G51A G63U | < 1e-05 | – | – | < 1e-05 | –
20 | G51A U55G C68G | < 1e-05 | – | – | < 1e-05 | –
21 | C8A G35C C67A | < 1e-05 | < 1e-05 | – | – | < 1e-05
22 | G29C A33G G38A G40C G43C | < 1e-05 | – | – | – | –
23 | C8U U30C | < 1e-05 | < 1e-05 | < 1e-05 | < 1e-05 | < 1e-05
